# From publication PMC8248388
# Legend:
# FcγRIIb [1] = target: FcγRIIb (UniProt P31994); assay: SPR; Biacore T200, 25°C, HBS-EP+; anti-His antibody on a CM5 chip captures His-tagged FcγRIIb (404 RU); rituximab 375-6000 nM injected; steady-state model, report points 15 s after injection start
# FcγRI [2] = target: FcγRI (UniProt P12314); assay: SPR; Biacore T200, 25°C, HBS-EP+; His-tagged FcγR captured by anti-His antibody on a CM5 chip, rituximab injected; single-cycle kinetics, five concentrations, 600 s dissociation; 1:1 binding model, KD from kd/ka
# Sequence of UniProt P12314 (P12314 16-292): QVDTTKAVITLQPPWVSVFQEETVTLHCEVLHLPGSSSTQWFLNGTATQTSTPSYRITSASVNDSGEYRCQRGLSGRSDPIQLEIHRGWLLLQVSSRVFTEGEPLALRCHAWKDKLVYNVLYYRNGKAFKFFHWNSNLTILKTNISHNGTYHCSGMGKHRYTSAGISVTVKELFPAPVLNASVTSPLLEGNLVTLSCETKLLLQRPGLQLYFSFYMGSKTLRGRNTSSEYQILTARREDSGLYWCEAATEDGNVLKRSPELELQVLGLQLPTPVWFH
# FcγRIIIa F176 [3] = target: FcγRIIIa F176 (UniProt P08637); assay: as above
# FcγRIIIa V176 [4] = target: FcγRIIIa V176 (UniProt P08637); assay: SPR; Biacore T200, 25°C, HBS-EP+; anti-His antibody amine-coupled on a CM5 chip captures the His-tagged FcγR; rituximab injected at five increasing concentrations (150 s, 30 µl/min), single-cycle kinetics, dissociation 600 s; 1:1 binding model, KD from kd/ka
# FcγRIIIa F176 [5] = target: FcγRIIIa F176 (UniProt P08637); assay: as above
# FcγRIIIa V176 [6] = target: FcγRIIIa V176 (UniProt P08637)
# FcγRIIb [7] = target: FcγRIIb (UniProt P31994); assay: SPR; Biacore T200, 25°C, HBS-EP+; His-tagged FcγRIIb captured by anti-His antibody on a CM5 chip (404 RU), rituximab injected at 375-6000 nM; steady-state model, report points 15 s after injection start
# FcγRI [8] = target: FcγRI (UniProt P12314); assay: SPR; Biacore T200, 25°C, HBS-EP+; anti-His antibody amine-coupled on a CM5 chip captures the His-tagged FcγR; rituximab injected at five increasing concentrations (150 s, 30 µl/min), single-cycle kinetics, dissociation 600 s; 1:1 binding model, KD from kd/ka
# Sequence of UniProt P31994 (P31994 43-217): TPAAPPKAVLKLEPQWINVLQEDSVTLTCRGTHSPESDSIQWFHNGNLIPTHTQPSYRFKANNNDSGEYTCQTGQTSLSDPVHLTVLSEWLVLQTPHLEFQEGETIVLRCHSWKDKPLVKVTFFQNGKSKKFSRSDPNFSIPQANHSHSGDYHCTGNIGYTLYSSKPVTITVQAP
Kd (FcγRIIb [1]),Kd (FcγRI [2]),Kd (FcγRIIIa F176 [3]),Kd (FcγRIIIa V176 [4]),Kd (FcγRIIIa F176 [5]),"EC50 of the ADCC Reporter Bioassay (Promega G7015); Day 7 samples from 200, 400 and 800 µM ThioFuc (38, 34, 37 ng/mL); FcγRIIIa variant on the effector cells not stated (FcγRIIIa V176 [6])",Kd (FcγRIIb [7]),Kd (FcγRI [8]),"EC50 of the ADCC Reporter Bioassay (Promega G7015): Raji target cells, engineered Jurkat effector cells, luciferase; FcγRIIIa variant on the effector cells not stated (FcγRIIIa V176 [6])",Substance
908 nM,11.3 nM,72 nM,13 nM,70 nM,0.038 µg/mL,893 nM,,,modified rituximab (46% afucosylation and 48% thiofucosylation) (antibody)
,14 nM,,,,,,12 nM,0.087 µg/mL,rituximab (8.5% afucosylation) (antibody)
